# According to patent US20030113743:
# Tests used:
# [1] = tested on: phK2^v217 (pro form of hK2 with valine at residue 217)
# [2] = tested on: synthetic peptide, residues 210-236 of hK2 (peptide #1 of FIG. 16)
# [3] = tested on: peptide #3 of FIG. 16, amino acid residues -7 to +7 of phK2
# Sequence of synthetic peptide, residues 210-236 of hK2 (peptide #1 of FIG. 16) (chain, as listed by the source): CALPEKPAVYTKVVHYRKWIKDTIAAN
Substance,"conversion of pro to mature form (HIC-HPLC, N-terminal sequencing) [1]","peptide bond cleavage (RP-HPLC, N-terminal sequencing) [2]",peptide bond cleavage [3],conversion of pro to mature form (HIC-HPLC) [1]
trypsin,complete conversion of phK2^v217 to hK2^v217,,,
"prostate-specific antigen protein, hK3 (PSA)",,PSA cleaved the Y-R bond primarily,,
wild type mature hK2 (prostate-specific glandular kallikrein protein),,its activity was exclusive for the trypsin-like site (R-K),hK2 was able to cleave this peptide releasing the propeptide region,at a rate about 30× slower than trypsin
phK2^v217 (pro form of hK2 with valine at residue 217),,showed no amidolytic activity,,
hK2^v217 (mature hK2 polypeptide having an alanine to valine substitution at amino acid position 217),,trypsin-like cleavage at a 2:1 ratio over the chymotrypsin-like cleavage,,no difference in the ratios of the two hK2 forms was detected even after 6 hours
